In PMC3971370 (Molecular plant, 2012):

Target: nCFP–CPK3 (Arabidopsis thaliana, UniProt Q42479 1-529)
Assay: split reporter

Sequence of nCFP–CPK3 (Q42479 whole entry): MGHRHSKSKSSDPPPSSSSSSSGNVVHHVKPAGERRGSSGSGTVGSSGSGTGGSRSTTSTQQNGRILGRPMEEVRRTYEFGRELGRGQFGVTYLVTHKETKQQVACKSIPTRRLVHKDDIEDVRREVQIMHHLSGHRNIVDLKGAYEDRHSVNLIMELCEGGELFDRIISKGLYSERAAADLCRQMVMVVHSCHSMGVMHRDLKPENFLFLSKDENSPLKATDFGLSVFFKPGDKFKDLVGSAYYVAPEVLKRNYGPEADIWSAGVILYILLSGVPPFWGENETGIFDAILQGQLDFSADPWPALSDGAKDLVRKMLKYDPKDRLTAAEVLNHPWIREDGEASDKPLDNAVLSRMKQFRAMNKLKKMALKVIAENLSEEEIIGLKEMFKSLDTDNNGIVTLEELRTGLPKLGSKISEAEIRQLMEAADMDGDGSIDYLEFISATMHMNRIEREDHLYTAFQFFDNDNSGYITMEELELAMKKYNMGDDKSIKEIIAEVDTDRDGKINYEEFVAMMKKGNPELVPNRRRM

B1: cCFP–TPK1–R35A/R39A (natural protein)
chain: MSSDAARTPLLPTEKIDTMAQDFNLNSRTSSSRKARLRASRSAPRGDCMYNDDVKIDEPPPHPSKIPMFSDLNPNLRRVIMFLALYLTIGTLCFYLVRDQISGHKTSGVVDALYFCIVTMTTVGYGDLVPNSSASRLLACAFVFSGMVLVGHLLSRAADYLVEKQEALLVRAFHLRQSFGPTDILKELHTNKLRYKCYATCLVLVVLFIVGTIFLVMVEKMPVISAFYCVCSTVTTLGYGDKSFNSEAGRLFAVFWILTSSICLAQFFLYVAELNTENKQRALVKWVLTRRITNNDLEAADLDEDGVVGAAEFIVYKLKEMGKIDEKDISGIMDEFEQLDYDESGTLTTSDIVLAQTTSQIQR
B1 was tested, and the “BiFC signal relative to wild-type TPK1” value was ~0.5 fold of wild type.
